Measurements from IntAct's records for PubMed 12782684.

B1: Ras-like protein 2 (Saccharomyces cerevisiae), P01120 (parent)
chain: MPLNKSNIREYKLVVVGGGGVGKSALTIQLTQSHFVDEYDPTIEDSYRKQVVIDDEVSILDILDTAGQEEYSAMREQYMRNGEGFLLVYSITSKSSLDELMTYYQQILRVKDTDYVPIVVVGNKSDLENEKQVSYQDGLNMAKQMNAPFLETSAKQAINVEEAFYTLARLVRDEGGKYNKTLTENDNSKQTSQDTKGSGANSVPRNSGGHRKMSNAANGKNVNSSTTVVNARNASIESKTGLAGNQATNGKTQTDRTNIDNSTGQAGQANAQSANTVNNRVNNNSKAGQVSNAKQARKQQAAPGGNTSEASKSGSGGCCIIS
partner: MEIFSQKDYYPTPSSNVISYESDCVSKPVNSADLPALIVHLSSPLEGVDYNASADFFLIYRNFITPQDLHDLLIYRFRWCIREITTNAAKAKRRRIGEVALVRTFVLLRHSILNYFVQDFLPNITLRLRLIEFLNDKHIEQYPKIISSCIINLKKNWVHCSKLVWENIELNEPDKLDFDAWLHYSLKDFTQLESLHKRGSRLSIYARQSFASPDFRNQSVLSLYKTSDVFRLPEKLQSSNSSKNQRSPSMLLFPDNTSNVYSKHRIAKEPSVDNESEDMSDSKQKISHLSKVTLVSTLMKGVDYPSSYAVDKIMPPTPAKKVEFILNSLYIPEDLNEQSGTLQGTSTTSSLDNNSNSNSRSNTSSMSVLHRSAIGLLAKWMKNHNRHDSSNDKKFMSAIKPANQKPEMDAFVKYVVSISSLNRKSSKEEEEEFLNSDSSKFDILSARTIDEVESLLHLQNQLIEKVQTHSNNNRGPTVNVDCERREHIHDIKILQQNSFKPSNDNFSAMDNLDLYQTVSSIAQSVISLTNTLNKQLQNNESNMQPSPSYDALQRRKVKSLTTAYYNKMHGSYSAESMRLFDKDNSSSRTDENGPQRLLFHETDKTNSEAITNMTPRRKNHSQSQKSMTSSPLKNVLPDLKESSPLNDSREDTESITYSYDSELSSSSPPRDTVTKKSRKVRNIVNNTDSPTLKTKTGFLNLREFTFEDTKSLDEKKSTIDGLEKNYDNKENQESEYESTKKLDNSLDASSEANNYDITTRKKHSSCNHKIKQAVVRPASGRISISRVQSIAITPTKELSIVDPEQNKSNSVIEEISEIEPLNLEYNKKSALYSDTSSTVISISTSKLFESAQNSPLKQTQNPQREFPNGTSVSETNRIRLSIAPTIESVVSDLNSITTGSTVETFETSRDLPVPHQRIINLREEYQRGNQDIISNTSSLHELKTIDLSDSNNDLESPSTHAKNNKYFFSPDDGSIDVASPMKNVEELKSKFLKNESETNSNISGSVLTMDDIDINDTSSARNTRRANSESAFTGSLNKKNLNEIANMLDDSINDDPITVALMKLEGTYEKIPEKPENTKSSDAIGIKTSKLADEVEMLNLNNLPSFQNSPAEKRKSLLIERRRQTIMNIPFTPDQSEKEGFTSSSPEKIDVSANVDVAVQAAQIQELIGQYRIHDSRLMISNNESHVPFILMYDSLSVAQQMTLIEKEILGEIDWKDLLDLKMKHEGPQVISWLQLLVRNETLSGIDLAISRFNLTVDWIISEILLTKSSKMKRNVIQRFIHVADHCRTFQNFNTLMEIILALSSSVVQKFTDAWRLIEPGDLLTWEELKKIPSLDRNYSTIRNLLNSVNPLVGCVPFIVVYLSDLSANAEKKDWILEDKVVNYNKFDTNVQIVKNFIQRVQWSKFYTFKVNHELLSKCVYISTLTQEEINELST

Variants of: B1
Conditions: with lte1_yeast LTE1, P07866

effect of a mutation on the interaction	Variant
disrupting interaction	G22N

Variants of: B1
Conditions: with lte1_yeast LTE1, P07866
Remark: another data set of the same source

effect of a mutation on the interaction	Variant
increasing interaction	G19V

Variants of: B1
Conditions: with lte1_yeast LTE1, P07866
Remark: another data set of the same source

effect of a mutation on the interaction	Variant
disrupting interaction	C318S
